US20260116951A1 (DUCENTIS BIOTHERAPEUTICS, published 2026)
Residue numbers refer to the chain shown, from its start. Names and notes keep the numbering of the source.

T1: muCD200R-Fc (Creative Biomart CD200R1-458M) (mouse, UniProt Q9ES57 26-238)
T1 construct: Captured on anti-human IgG Fc for the mouse CD200 measurements; also called Murine CD200R1; immobilized CD200R (muCD200); not shown: Fc of the bought fusion, not described (captured on anti-human IgG Fc)
T1 sequence (looked up): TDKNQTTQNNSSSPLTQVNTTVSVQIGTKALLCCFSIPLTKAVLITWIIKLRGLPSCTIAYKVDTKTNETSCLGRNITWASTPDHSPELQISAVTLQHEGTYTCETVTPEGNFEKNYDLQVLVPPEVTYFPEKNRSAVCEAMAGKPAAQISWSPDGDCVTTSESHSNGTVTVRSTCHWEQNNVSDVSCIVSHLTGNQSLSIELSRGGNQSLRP

B1: Murine wild-type CD200 monomer, his-tag (DS-131), printed in Table 7 as DS-198 (ligand, mouse, UniProt O54901 31-232, looked up)
chain: QVEVVTQDERKALHTTASLRCSLKTSQEPLIVTWQKKKAVSPENMVTYSKTHGVVIQPAYKDRINVTELGLWNSSITFWNTTLEDEGCYMCLFNTFGSQKVSGTACLTLYVQPIVHLHYNYFEDHLNITCSATARPAPAISWKGTGTGIENSTESHFHSNGTTSVTSILRVKDPKTQVGKEVICQVLYLGNVIDYKQSLDKG
notes: extracellular domain; the match of DS-131 to DS-198 follows the order of the sentence; also called wild type muCD200-Fc (the corresponding IgG2a Fc fusion); not shown: his tag
B2: Murine CD200 H82Y, T125I monomer, his-tag (DS-169), printed in Table 7 as DS-227 (ligand, mouse, UniProt O54901 31-232, looked up)
chain: B1 chain with H52Y, T95I
notes: extracellular domain; See the note of m9; not shown: his tag
B3: DS-192 (human CD200-Fc, K130Y, IgG4 Fc) (Fc fusion)
chain: QVQVVTQDEREQLYTPASLKCSLQNAQEALIVTWQKKKAVSPENMVTFSENHGVVIQPAYKDKINITQLGLQNSTITFWNITLEDEGCYMCLFNTFGFGYISGTACLTVYVQPIVSLHYKFSEDHLNITCSATARPAPMVFWKVPRSGIENSTVTLSHPNGTTSVTSILHIKDPKNQVGKEVICQVLHLGTVTDFKQTVNKGPPCPPCPAPEFLGGPSVFLFPPKPKDTLMISRTPEVTCVVVDVSQEDPEVQFNWYVDGVEVHNAKTKPREEQFNSTYRVVSVLTVLHQDWLNGKEYKCKVSNKGLPSSIEKTISKAKGQPREPQVYTLPPSQEEMTKNQVSLTCLVKGFYPSDIAVEWESNGQPENNYKTTPPVLDSDGSFFLYSRLTVDKSRWQEGNVFSCSVMHEALHNHYTQKSLSLSLGK
notes: also called 13 nM CD200-Fc; ha CD200-IgG4 Fc
B4: Recombinant Human CD200R, His-tagged (Creative Biomart CD200R1-320H) (receptor, UniProt Q8TD46 27-266, looked up)
chain: AAQPNNSLMLQTSKENHALASSSLCMDEKQITQNYSKVLAEVNTSWPVKMATNAVLCCPPIALRNLIIITWEIILRGQPSCTKAYKKETNETKETNCTDERITWVSRPDQNSDLQIRTVAITHDGYYRCIMVTPDGNFHRGYHLQVLVTPEVTLFQNRNRTAVCKAVAGKPAAHISWIPEGDCATKQEYWSNGTVTVKSTCHWEVHNVSTVTCHVSHLTGNKSLYIELLPVPGAKKSAKL
notes: Bought; also called human CD200 receptor; not shown: His tag
B5: Mouse CD200R protein (Creative Biomart CD200R1-3280M) (receptor, UniProt Q9ES57 26-238, looked up)
chain: T1 sequence (looked up)
notes: also called Murine CD200R1; murine CD200R
B6: Human CD200R1L (receptor, UniProt Q6Q8B3 24-239, looked up)
chain: GKQMTQNYSTIFAEGNISQPVLMDINAVLCCPPIALRNLIIITWEIILRGQPSCTKAYKKETNETKETNCTVERITWVSRPDQNSDLQIRPVDTTHDGYYRGIVVTPDGNFHRGYHLQVLVTPEVNLFQSRNITAVCKAVTGKPAAQISWIPEGSILATKQEYWGNGTVTVKSTCPWEGHKSTVTCHVSHLTGNKSLSVKLNSGLRTSGSPALSLL
notes: nothing is said of the reagent

Legend:
[1] = molecular target: T1, muCD200R-Fc (Creative Biomart …); experiment: SPR, his-tag mouse CD200 monomer flowed over muCD200R-Fc captured on anti-human Fc, 25 C, 1:1 fit
Description: (§1) For mouse CD200 constructs, muCD200R-Fc (Creative Biomart CD200R1-458M) diluted to 1 μg/mL in running buffer was flowed over the immobilized Anti-Human IgG Fc, with CD200 monomers serially diluted and flowed over captured CD200R. Other details were as above. Data analysis: experimental sensorgrams were analyzed in BIAevaluation software (GE Healthcare). The curves obtained were fitted to 1:1 Langmuir binding model by setting Rmax and RI as local parameters. Rate equations using standard parameters (e.g. ligand concentration, time) were used for iterative curve fitting. Closeness of fit was determined by algorithms provided by the manufacturer in the BIAevaluation software, and data accepted if the Chi² value was less than 10% of Rₘₐₓ, and the U value was less than or equal to 15.
(§2) Curves obtained were fitted to 1:1 Langmuir binding model by setting Rmax and RI as local parameters. Rate equations using standard parameters (e.g. ligand concentration, time) were used for iterative curve fitting. […] Means of 2 experiments carried out on the same day are shown with standard deviation. Residue numbering for CD200 proteins refers to the pre-protein, containing a signal peptide which is cleaved during insertion into the endoplasmic reticulum.

[2] = molecular target: T1, muCD200R-Fc (Creative Biomart …); experiment: SPR, his-tag mouse CD200 monomer flowed over muCD200R-Fc captured on anti-human Fc, 25 C, 1:1 fit, mean of 2 experiments with standard deviation
Description: as §1, §2

[3] = molecular target: T1, muCD200R-Fc (Creative Biomart …); experiment: SPR, monomeric binding
Description: as §1, §2

[4] = molecular target: B4; experiment: SPR, CD200R flowed over immobilized CD200-Fc, 25 C, 1:1 fit
Description: (§3) For human CD200 constructs: anti-human Fc (GE Healthcare) was covalently immobilized on a BIAcore CM5 sensor chip (Cytiva, BR100530) by amine coupling using a Cytiva kit (BR100839) following the manufacturer's instructions, targeting immobilization of 8,000-11,000 RU. CD200-Fc proteins were diluted to 0.5 μg/mL to 4 μg/mL in running Buffer (1×HBS-EP+pH7.4 (Cytiva BR100669), HEPES Buffered Saline pH 7.4 containing 3 mM EDTA and 0.05% v/v Surfactant P20) and flowed for 25 to 100 seconds at 10 μL/min over the immobilized Anti-Human IgG Fc, with a stabilization time of 60 seconds. Between 35 and 250 RUs of CD200-Fc were captured, with higher RUs used for cynomolgus CD200R binding experiments. […] Analysis temperature was 25° C. This was followed by regeneration of the surface with 30-90 second pulse of 3M MgCl₂ flowed at […] flow rate followed by stabilization of the surface with 60 second flow of running buffer.
as §2

[5] = molecular target: T2, Recombinant Cyno CD200R, His-tagged (Creative Biomart CD200R1-3483C) (cynomolgus monkey); experiment: SPR, cyno CD200R1 flowed over immobilized CD200-Fc, 25 C, 1:1 fit
T2 construct: Bought; also called cynomolgus CD200R1; cynomolgus CD200R
Description: as §3, §2

[6] = molecular target: T2, Recombinant Cyno CD200R, His-tagged …; experiment: SPR, cyno CD200R1 flowed over immobilized CD200-Fc, 25 C, 1:1 fit, mean of 2 experiments with standard deviation
Description: as §3, §2

[7] = molecular target: B3; experiment: SPR, CD200R flowed over immobilized CD200-Fc, 25 C, 1:1 fit, mean of 2 experiments with standard deviation
Description: as §3, §2

[8] = molecular target: B3; experiment: SPR (BIAcore)

T1/2 [1] [min] | Kd [2] [nM] | binding result [8] | Binder | other results
0.288 | 584 |  | B1 | 
1.96 | 43.3 |  | B2 | fold higher affinity than wild type [3]: ~14 fold
 |  |  | B3 | T1/2 [4]: 3.1 min; T1/2 [5]: 0.32 min; Kd [6]: 459 nM
 |  |  | B4 | Kd [7]: 12.5 nM
 |  | no binding | B5 | 
 |  | no binding | B6 | 
